# Measured values reported in patent publication US20220372132A1 (SG MEDICAL, published 2022).
# Assays:
# [1] = target: T1, recombinant human αVβ1 integrin (R&D Systems, USA) (human, UniProt P06756 31-992; P05556 21-728); assay: indirect ELISA, integrin coated at 1 µg/ml, HRP anti-human Fc detection
# T1 construct: Bought heterodimer
# Protocol: (§1) The affinities of the monoclonal antibody GP5 for various integrins were measured by indirect ELISA to determine the specificity of the monoclonal antibody GP5 for beta 1 integrin. Each of recombinant human αVβ1 integrin (R&D Systems, USA), αVβ3 integrin (R&D Systems, USA), αVβ5 integrin (R&D Systems, USA), αVβ6 integrin (R&D Systems, USA), αVβ8 integrin (R&D Systems, USA), α5β1 integrin (R&D Systems, USA), and α2bβ3 integrin (R&D Systems, USA) was diluted to 1 μg/ml in 50 μl of PBS, plated in a 96-well immune plate (Corning, USA), and stored at 4° C. overnight for its adsorption. After incubation with a buffer containing 3% bovine serum albumin (Millipore, USA) at 37° C. for 1 h, the wells were treated with the monoclonal antibody GP5 sequentially diluted to concentrations of 0.01, 0.03, 0.1, 0.3, 1, 3, 100, 300, and 1000 nM (50 μl/well). The well plate was incubated at 37° C. for 2 h to allow the antibody to bind to the antigen and washed 3 times with a buffer containing 0.5% Tween 20 (Amresco, USA). The wells were treated with HRP-labeled anti-human Fc IgG secondary antibody diluted 1:3000 with PBS (50 μl/well). The well plate was incubated at 37° C. for 1 h and washed 3 times with a buffer containing 0.5% Tween 20 (Amresco, USA). […] Absorbance was measured at 450 nm using a spectrophotometer (Biotek, USA).
# [2] = target: T2, α5β1 integrin (R&D Systems, USA) (human, UniProt P08648 42-995; P05556 21-728); assay: as above
# T2 construct: Bought heterodimer; also called recombinant human α5β1 integrin
# T2 sequence (P08648 42-995 limits assumed, chain 1 of 2): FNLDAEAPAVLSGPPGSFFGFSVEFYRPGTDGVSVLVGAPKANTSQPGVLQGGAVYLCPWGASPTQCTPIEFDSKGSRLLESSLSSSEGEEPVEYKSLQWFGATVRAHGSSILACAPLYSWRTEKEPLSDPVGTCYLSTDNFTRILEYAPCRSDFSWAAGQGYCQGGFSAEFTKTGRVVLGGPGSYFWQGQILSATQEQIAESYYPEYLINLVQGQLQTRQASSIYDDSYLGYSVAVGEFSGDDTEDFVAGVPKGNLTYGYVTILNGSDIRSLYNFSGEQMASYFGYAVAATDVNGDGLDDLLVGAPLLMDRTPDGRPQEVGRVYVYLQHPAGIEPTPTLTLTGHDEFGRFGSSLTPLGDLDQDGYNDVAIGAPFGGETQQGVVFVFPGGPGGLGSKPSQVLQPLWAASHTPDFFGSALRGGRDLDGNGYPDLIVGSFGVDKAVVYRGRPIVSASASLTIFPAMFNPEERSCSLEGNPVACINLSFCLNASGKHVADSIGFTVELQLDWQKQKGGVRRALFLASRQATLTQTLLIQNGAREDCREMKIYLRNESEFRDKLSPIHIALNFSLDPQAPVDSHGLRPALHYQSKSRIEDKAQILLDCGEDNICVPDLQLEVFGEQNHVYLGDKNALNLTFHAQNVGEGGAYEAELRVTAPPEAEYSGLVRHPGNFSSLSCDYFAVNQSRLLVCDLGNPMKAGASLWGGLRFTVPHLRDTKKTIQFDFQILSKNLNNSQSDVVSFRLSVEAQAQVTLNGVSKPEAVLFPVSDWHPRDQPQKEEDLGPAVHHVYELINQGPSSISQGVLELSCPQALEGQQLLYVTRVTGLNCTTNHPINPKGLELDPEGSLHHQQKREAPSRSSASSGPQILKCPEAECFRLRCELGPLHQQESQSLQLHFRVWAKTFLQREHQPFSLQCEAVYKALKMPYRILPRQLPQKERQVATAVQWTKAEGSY
# T2 sequence (P05556 21-728 limits assumed, chain 2 of 2): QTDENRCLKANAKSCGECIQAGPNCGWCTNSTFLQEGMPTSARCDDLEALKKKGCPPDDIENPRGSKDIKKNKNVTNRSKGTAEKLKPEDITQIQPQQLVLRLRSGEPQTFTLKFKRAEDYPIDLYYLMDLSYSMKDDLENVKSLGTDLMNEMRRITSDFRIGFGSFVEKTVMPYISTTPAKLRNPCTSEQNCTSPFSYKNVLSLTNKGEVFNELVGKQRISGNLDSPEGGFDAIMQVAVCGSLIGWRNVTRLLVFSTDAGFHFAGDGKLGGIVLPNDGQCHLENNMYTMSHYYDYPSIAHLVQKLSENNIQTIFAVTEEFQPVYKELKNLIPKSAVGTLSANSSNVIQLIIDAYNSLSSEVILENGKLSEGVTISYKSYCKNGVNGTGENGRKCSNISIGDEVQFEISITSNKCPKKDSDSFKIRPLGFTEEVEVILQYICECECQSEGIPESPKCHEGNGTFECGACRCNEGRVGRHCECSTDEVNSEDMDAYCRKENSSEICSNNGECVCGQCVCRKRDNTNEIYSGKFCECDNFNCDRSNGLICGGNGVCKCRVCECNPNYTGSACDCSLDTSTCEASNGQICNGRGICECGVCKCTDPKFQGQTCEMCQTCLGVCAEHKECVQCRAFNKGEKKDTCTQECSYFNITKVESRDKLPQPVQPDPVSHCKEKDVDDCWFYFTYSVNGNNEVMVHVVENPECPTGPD
# Protocol: as §1
# T1 sequence (P06756 31-992 limits assumed, chain 1 of 2): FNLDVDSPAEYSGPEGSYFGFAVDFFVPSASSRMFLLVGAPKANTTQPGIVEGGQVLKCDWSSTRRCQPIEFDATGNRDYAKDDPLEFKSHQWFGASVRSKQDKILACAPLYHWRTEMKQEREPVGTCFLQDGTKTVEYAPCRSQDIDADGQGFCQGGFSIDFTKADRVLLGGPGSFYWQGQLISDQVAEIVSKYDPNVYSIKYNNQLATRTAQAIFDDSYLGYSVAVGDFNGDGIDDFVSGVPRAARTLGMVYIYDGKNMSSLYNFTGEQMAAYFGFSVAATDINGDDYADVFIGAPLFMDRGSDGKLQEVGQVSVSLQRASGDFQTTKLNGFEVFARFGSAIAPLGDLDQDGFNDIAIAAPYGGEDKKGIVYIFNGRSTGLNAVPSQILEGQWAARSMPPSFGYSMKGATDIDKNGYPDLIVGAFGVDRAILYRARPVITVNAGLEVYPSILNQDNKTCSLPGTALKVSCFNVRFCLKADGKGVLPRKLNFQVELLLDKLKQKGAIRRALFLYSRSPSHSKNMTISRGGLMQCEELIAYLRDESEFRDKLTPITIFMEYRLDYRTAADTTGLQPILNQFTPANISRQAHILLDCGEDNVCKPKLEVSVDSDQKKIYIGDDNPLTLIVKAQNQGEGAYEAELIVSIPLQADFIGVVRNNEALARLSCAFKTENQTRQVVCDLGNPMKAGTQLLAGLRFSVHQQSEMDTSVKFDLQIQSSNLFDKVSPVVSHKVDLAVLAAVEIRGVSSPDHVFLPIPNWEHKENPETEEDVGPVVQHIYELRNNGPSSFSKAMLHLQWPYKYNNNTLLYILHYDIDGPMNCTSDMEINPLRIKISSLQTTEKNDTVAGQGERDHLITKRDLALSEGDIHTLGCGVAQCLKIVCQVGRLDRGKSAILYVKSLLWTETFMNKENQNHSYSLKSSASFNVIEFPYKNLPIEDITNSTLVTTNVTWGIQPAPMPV
# T1 sequence (P05556 21-728 limits assumed, chain 2 of 2): as the sequence (P05556 21-728 limits assumed, chain 2 of 2) above
binder,measurement,setting,value
"monoclonal antibody GP5 (antibody, human IgG1, V domains shown, Full IgG made in HEK293F cells; The humanized VH is joined to a human IgG1 heavy chain constant region (CH1, CH2, CH3) and the VL to a human Ckappa; also called humanized antibody GP5; modified monoclonal antibody (GP5)) VH: QVQLQQSGSELMKPGASVKVSCKASGYTFTNYWIEWIVQRPGHGLEWIGEILPGSVNTNYNAKFKDRATFTADTSTDTASMELSSLTSEDSAVYYCALATPYYALDSWGQGTSVTVSS VL: DIVMTQAAPSLSVTPGESVSISCRSTESLLHSNGNTYLYWYLQKPGQSPQLLIYRMSNRASGVPDRFSGSGSGTAFTLKIRRVEAEDVGVYYCMQHLEYPFTFGAGTKLELK",binding result,[1],binds
same,binding result,[2],binds
